Measurements from PMC7335806.

Columns and labels:
[1] = in vitro vesicle formation assay, immunoblot; settings: glycan lost; control: Fzd6WT
[2] = immunofluorescence, surface localisation in COS7 cells; settings: glycan lost; control: HA-Fzd6wt

B1: Frizzled-6 (Fzd6): N38A, N352A (protein)
parent chain: MERSPFLLACILLPLVRGHSLFTCEPITVPRCMKMTYNMTFFPNLMGHYDQGIAAVEMGHFLHLANLECSPNIEMFLCQAFIPTCTEQIHVVLPCRKLCEKIVSDCKKLMDTFGIRWPEELECNRLPHCDDTVPVTSHPHTELSGPQKKSDQVPRDIGFWCPKHLRTSGDQGYRFLGIEQCAPPCPNMYFKSDELDFAKSFIGIVSIFCLCATLFTFLTFLIDVRRFRYPERPIIYYSVCYSIVSLMYFVGFLLGNSTACNKADEKLELGDTVVLGSKNKACSVVFMFLYFFTMAGTVWWVILTITWFLAAGRKWSCEAIEQKAVWFHAVAWGAPGFLTVMLLAMNKVEGDNISGVCFVGLYDLDASRYFVLLPLCLCVFVGLSLLLAGIISLNHVRQVIQHDGRNQEKLKKFMIRIGVFSGLYLVPLVTLLGCYVYELVNRITWEMTWFSDHCHQYRIPCPYQANPKARPELALFMIKYLMTLIVGISAVFWVGSKKTCTEWAGFFKRNRKRDPISESRRVLQESCEFFLKHNSKVKHKKKHGAPGPHRLKVISKSMGTSTGATTNHGTSAMAIADHDYLGQETSTEVHTSPEASVKEGRADRANTPSAKDRDCGESAGPSSKLSGNRNGRESRAGGLKERSNGSEGAPSEGRVSPKSSVPETGLIDCSTSQAASSPEPTSLKGSTSLPVHSASRARKEQGAGSHSDA
- localisation_or_trafficking [1]: decreases
- localisation_or_trafficking [2]: decreases
